Where a chain is given by its changes, count along the chain named.

In test [1] the target is TTR-V122I (fibrils and oligomeric aggregates) (UniProt P02766 21-147). Briefly: cell-based or functional assay.
Test [2] has as its target T1, pH4.0-treated TTR (human, UniProt P02766 21-147). Description: ELISA, pH4-TTR captured by anti-His. For orientation: In an ELISA, binding on a coated surface is turned into a signal by an enzyme label.
The target in test [3] is T1, pH4.0-treated TTR. Briefly: summary of Table 4; ELISA on pH4-TTR.
Test [4] deals with T2, pH4.0-treated TTR (human, UniProt P02766 21-147). Briefly: ELISA, pH4-TTR captured by anti-His. This is another data set of the same source.
For test [5], the target named is T2, pH4.0-treated TTR. Briefly: summary of Table 4; ELISA on pH4-TTR. The source holds these as a separate data set.

B1: mouse monoclonal antibody 14G8 (antibody, V domains shown)
VH: EVKLVESGGGLVQPGGSLKLSCAASGFTFSSYTMSWVRQTPEKRLELVAEINNSGDTTYYPDTVKGRFTISRDNAKNTLYLQMSSLKSEDTAMYYCARHYYYGGGYGGWFFDVWGTGTTVTVSS
VL: DIVMTQAAPSVPVTPGESVSISCRSNKSLLHSNGNTYLYWFLQRPGQSPQLLIYRVSNLASGVPDRFSGSGSGTAFTLRISRVEAEDVGVYYCMQHLEYPLTFGAGTKLELKR
Regarding B1, the “IC50 of inhibition of TTR-V122I fibrillation (ThT fluorescence)” value in test [1] came to 28 µg/mL.

B2: mouse monoclonal antibody 9D5 (antibody, V domains shown)
VH: B1 VH with N52S, I70F
VL: DIVMTQAAPSVPVTPGESVSISCRSSKSLLHSNGNTYLYWFLQRPGQSPQLLIYRVSNLASGVPDRFSGSGSGTAFTLRISRVEAEDVGVYYCMQHLEYPLTFGAGTKLELK
With B2, the Kd with pH4.0-treated TTR [2] was 282 nM; in the test with pH4.0-treated TTR [3] it was 257 nM.

B3: mouse monoclonal antibody 6C1 (antibody, V domains shown)
VH: EVQLVESGGGLVQPGGSLKLSCAASGFTFSNYYMSWVRQTPEKRLEWVAYISIDGNNIYHPDSVKGRFTISRDNAKNTLYLQMSSLKSEDTAMYYCARDSDYGYFDVWGTGTTVTVSS
VL: DVLMTQTPLSLPVSLGDQASISCRSSQSIVHSNGNTYLEWYLQKRGQSPKLLIYKVSKRFSGVPDRFSGSGSGTDFILKISRVEAEDLGVYYCFQGSHVPLTFGGGTKLELK
notes: also called m6C1; mis-TTR mAb 6C1
Turning to B3, the Kd worked out at 16 nM with pH4.0-treated TTR [4] and 14.5 nM with pH4.0-treated TTR [5].

Usually Kd stands for the constant that tells how readily two partners part at equilibrium. Lower therefore signals higher affinity.
